We go through three substances from paper PMC8438039.

For this test, the target named is human Toll-like receptor 5 (hTLR5) on HEK-Blue hTLR5 cells (human) (UniProt O60602).
Sequence of UniProt O60602 (O60602 21-858): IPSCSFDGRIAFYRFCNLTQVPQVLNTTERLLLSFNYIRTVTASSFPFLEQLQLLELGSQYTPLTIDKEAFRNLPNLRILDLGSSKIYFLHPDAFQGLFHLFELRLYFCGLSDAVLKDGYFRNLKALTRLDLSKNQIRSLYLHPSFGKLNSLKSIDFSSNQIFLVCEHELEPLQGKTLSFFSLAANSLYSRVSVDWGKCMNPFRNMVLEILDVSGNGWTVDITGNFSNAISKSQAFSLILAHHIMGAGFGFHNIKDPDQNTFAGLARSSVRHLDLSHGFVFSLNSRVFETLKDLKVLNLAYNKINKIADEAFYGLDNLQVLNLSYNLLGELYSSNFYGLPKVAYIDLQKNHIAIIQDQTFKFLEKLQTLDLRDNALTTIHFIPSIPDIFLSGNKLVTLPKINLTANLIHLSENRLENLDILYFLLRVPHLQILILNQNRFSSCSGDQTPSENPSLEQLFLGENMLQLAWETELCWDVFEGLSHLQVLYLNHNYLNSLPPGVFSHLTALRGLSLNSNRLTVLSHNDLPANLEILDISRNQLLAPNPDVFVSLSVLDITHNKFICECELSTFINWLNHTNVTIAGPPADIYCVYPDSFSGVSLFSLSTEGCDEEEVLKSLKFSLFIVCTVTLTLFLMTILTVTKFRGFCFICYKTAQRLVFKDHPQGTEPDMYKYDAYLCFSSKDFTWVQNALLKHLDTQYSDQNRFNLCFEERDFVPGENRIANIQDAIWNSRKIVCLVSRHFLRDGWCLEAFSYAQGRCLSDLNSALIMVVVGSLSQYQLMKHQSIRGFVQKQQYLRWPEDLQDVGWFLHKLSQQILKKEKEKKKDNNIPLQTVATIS
Substance “D2D3 domain-depleted FlaB (FlaB^ΔD2D3) (natural protein)” came in with an EC50 of TLR5-dependent NF-κB activation in HEK-Blue hTLR5 cells (OD 620; 0.03719 nM to 76.16 nM protein) of 13.2 nM.
The figure for “Vibrio vulnificus flagellin B (FlaB), wild type recombinant (natural protein)” is 4.18 nM; for “deimmunized FlaB (dFlaB), FlaB lacking residues 175-193 (natural protein)” it is 9.01 nM.
